Measured values from the DeepSol protein solubility set.

Test: soluble on expression in E. coli; label from the status in PepcDB or PDB records

Soluble on expression in E. coli, not soluble:
MGSDKIHHHHHHMNFTQNEKLKQLSERSIVIGVDIASELHYARAFDWRGVELGKVFKFENSAEGFKNLYAWIERIKRQAQKDSIVVGAEPTGHYWFGLASYLKEQNIKLVLVNPFHVKRSKELDDNHPSKTDAKDPKTIAKLVIEGRYNEPYIPEGLYAELRIAVTCRVRIQKEMNSIKNRIQRWLKIYFPEHETVFGKFDATSSMLVLQVAPLPRDIERLGVEGINRIWRDNKLRAVGMKRAKSLYEAAQKSIGCTEGESCSRMEIQLLLQDYHTKTAQYQAVTETIDGLCRQIPEVAKLLEIKGVGLVTVAGFLSEVGDIKRFNSPKQIQKLAGLALRESSSGKHKGQTTISKRGRARLRAILFQAVMPLVAKNAEFAEIHNYYTTRTQNPLKKKQSLIALSCKLIRVFYAILTKGTDYDPKKLIMDIHRPVEYLAA
MGSDKIHHHHHHMNHTSADTTLRAFAQLIAEGTCLPAEERAPGQLKTGVDLGTANIVLSVVDANNRPVTGAMFPSTVVRDGIVVDYVGAVSVVRRLKAELEDRLGCPLTFAGTAIPPGILAGNVKAIANVVEAAGFEVADVSDEPTAASRVLGLREGAVVDVGGGTTGISILKNGEVVFTDDEATGGTHMTLVLAGAHGVSFEEAEAMKKDTAAARDVFAVVQPVVEKMASIVKRCLKGYDVETVYVVGGACTFDQFEQVFRKEIGLTIVKPAEPLLVTPLGIAMYGATPGEGAL
MGSDKIHHHHHHMNIIPYRVTLLEPLLATRIAGDPNSGVSYPYVPGSLVRGAAVAMYARNKGIVAVDAREEEARRLFFDGRTRYLNAYPADASGRRTLPTPRSLFHVEGEESPIYDFALEVIDAVNEETVQFVGAARDSQPFCRIDDSNIFFISPKRRINVHTQRDRVKGRATEVSGAVFQYDALEEGQTFAGWVLVDKDDDVELLSSLLRHIYRLGGSSNSGYGRVTVAVDAPQNIQVWREIPKQIVPIDAGETFVVTLLSDTLVRDPNTGQYTWDLRPALQQLLSVEIEHIHPIAGEEEQRSVWRLDEVGGFNRAWGLPLPQAQAIAGGSVFVFRARSPIPAQTIAGAEWDGIGERRAEGFGRLAFNWQTETELIRVDPPVVSLIDQLVPNLDGPARNIAQQMAMRMLRRELDAKLRKAINDIRPKHLSISNTQLSRLRIIAREALPNGDLARLQKYLDENIKTRRSVRDQFDRTRLGSEERLSQWLEERLSQPETVWDKIGAQTLSKRIGANVLVSTRDDTELAREYTIRLIDGVLARLAKERRREDGGRQ
MGSDKIHHHHHHMNILEYENYHEDKTHVELTFPYNTYLCSIPLDFSGVPLHWHDDMELIYIKKGCGHISVDFKEYHVTAPSLVLILPGQLHSIDQYMDESMEYENIIFSLSMLLPGKYDYTKEDFLTPLLAGRFTVPTVFTPVYPYYEDVVAPIDACDEICKTMPQGYQLYIKSKLYEFFFVLDNRCRNLTKPLKSKKTLDKMKVVLKYVENNYADKISIADIADVAGFSESHFMRYFKETMGTSFVDYLKDYRLTMAARLLQSSDSSVLSISGEVGFESLSYFNRAFKKHYGMTPLQYRKGS
MGSDKIHHHHHHMNILLVDDDRFIIEALREKINWAKLHIDIVYVAYSLTQAQNIIREHPIDLMISDIEMPQGSGLELLSWIRNEKYDIKTIFLTNYADFNYAQKAIELQSFEYYLKPINFEKLEFIIQKAISKIENHNLNGKNDSLLQIEDNFWYDYLRKPQISRIDELENIASKQDFILKQHQYFFLAVLTINLNEEDYSVETPSWTSQLKRELQRISQPSYKLISLFKMESQVDQYVCLFRVDSSKRSDKLAYEIHSQISNNFSKYSNIIYKSCHKISDILFHTKELYTYNEQYVSYWNTITCVPHSFPTSFKTETLSITFLDTLSEYELREKINSLAYNSQIPTFTLQQILLDWTQQIGIYLDQNGISAHKLFQNSTHDFLFQRRFHSIESFQDYFDYYWSHAKKFATNIENQKNSIQRIVEYIDHHYYEDINRSILADVVYLSADHLARIFKKETGETLVKYITDKRINAAKSLLSQTNISISQVSCQVGYDNYSYFTKIFKQRTGLSPGDYRKTYQNKM
MGSDKIHHHHHHMNIRLYSDLHIEFEDFHAPADGADVVVLAGDVDVGVRGIDWIVRQEFSCPVIYVMGNHEYYNHRYPSLLGKVKQHAAGKNIHILENESVEIDGVRFHGATLWADFKLFGDPRVAGYECQQVMRDYKKIRKEPSYSKLRSIDVASIHNQSLSWLAESLASSKSSVNVVVTHHAPSMLSVPAYYQDNLVTAAYASDLSAFIDEHKPDYWLHGHLHTSSNYYLGACQVLANPKGYKGEVNESFDPSFSLTLAKRGV
MGSDKIHHHHHHMNKDFTFTIKSIRLDEDYHPSDSTRITTNFANLARGSYRQANLRNALKMIDNSFNALANWDNPKGDRYSVELEIISVDMDIEGSGKTFPSIEILKTNIVDHQTNQRIEGIVGNNFSSYVRDYDFSVLLQAHNKDQPNFSIPDNFGELHGKLFQYFVNSNAYKQNFKKTPVICLSVSDNKTYHRTENQHPVLGVEYQPNESSLTEQYFKKMGLQVRYFMPPNSVAPLAFHFFGDLLNDYTNLELISTISTMGTFQKIYRPEIYNANAAAGKSYQPNLKNLDHSLTQIVYDREERSKLANEQGKFAEKHFIKPYQTVLEQWSANYV
MGSDKIHHHHHHMNKEAIESLLIHVIGTDVIVNEVRPIGGGNTSRAFAVKSSQGNFFIKTNRAGLVDMFEKEVKNLELLRKVLPSNTPEVVGYGTIDHVSYFILKLIEPGRRVADFWSDFGRTLSELHRVTGNTFGLEYDNYIGSLPQSNKQNSNWVDFFVNERIWPQAKKAEKVLGTEIVGMISKLSDRLPDLLTQSRPTLLHGDLWSGNFTLNQAGTVCLVDPATYYGNREIEIAFTKLFGGFEDEFYAAYSEVLPLDKGFFDTRADIYNLYPLLVHVNLFGGWYVASVRETLKRFV
MGSDKIHHHHHHMNKKSSLNNLLYIQEHRSCRNYLEKVENGFKYIEFSHEEVILEKEISWNYLLFVLEGECIINCNQFRERLFQANCMVLLPKTAMVEIKVIAGTRLLSLSFDVPLNVCDKFILQSLTGLCRKLDYNFQSLAIRYPLPPYLEIVTYCLTNKMDCGHFHTLLQQELFFLLRGFYLKEELALLFHPIISAELTFKDFVIGNYFKVSNVNDLISLSNMCKSSFYCKFKEVFGMTAKQWLLKQRNTHILNKVMTSETTVGELMEEFRFESQAHFTHYCKQHFNCTPRELIMKYQVVNQ
MGSDKIHHHHHHMNKLEERSQHRKSRFRFLVISTFWRVLLLLKNDAEPLFHLGNIHYAYGHKASAMNYWKEAVSKNREHEKAWHNLVQCAVIQEEWEQAAEGLTILCRNHPTRFEYMSLYTHALKKLGKKEELEEWYLSHINGPHHEWAIEGLGMLYIRTRREIDAFKLLSPFVRKFPNRPVGLKILGISSIRTNQYEAGLTFLEKSLELKEDKEVKSLVDRVKRLKKVRGGNR
MGSDKIHHHHHHMNKLRILHLNDLHSHLERFPVIERFFAEKSHEEVESLSFDLGDNVDRVHPLTEATEGQFNVELMNRLDLTAATIGNNEGLGLTHEMLSHLYDEANFPVLLSNLATNFAQSEPLIVTTSFGLRIGLIGLTAPYVLAYPQAGWELSDPFVVLDELLPKLDCDFTILLSHLGKNVDEQIAKDYDEIDLIIGAHTHHLFEHGAQVNQTLLAAAGRYGEYVGQIDLTFNENNQLVDAQIEAIATNTLPQRKSDLVETNGWELRGHKLLEGTVVADLPKALPNVLPDFKGSHYLAKIFADYGNTKLCLMNSGLLVTDELPNHLTLDDLHEFLPHSIRLVRFTFTGEELRQVLLEIMDVSDFLATQKIQGMGFRGKTFGSLIFHGIEPREGDFYIKNSENQSLEKISDEESYQIVLPDQYLFAWYFPLLKKLGKSEILFPYFLREIVAEHFKNK
